This data set is described as follows: label from the status in PepcDB records.

The text below walks through data of a protein production outcome set (Wang et al. 2014).

On to “MSEILVLNCGSSSVKFALINPHTSQSLVTGLAENIATKNCKVVFKAEHKIVKYLENGSYKDVFEMLKDFLVENKHLEKIVAIGHRVVHGGQYFSKSVLINADSLEKIKACIALAPLHNPAHIEGIRFCQQIFPELPQVAVFDTAFHQTMPSYIAEYAIPYELTHKHNIRKYGAHGTSHKYVSEQAAKILTQQKANVIVAHLGNGCSITAVVDGKSIDTSMGLTPLDGLVMGTRSGCIDPSIFAYISDNLGWSVTEITNMLNKQSGLLGICGHNDMREVSQLAAKGDSLAKLAIEIFSHRVAKFVASYMIYFNKLDALVFTGGIGENAANIRKNIISKLANLGFMIDHQKNSNSETFINSKNSHNIMVIATNEELMIAQETQNLI”, for which the protein production result is listed as “not failed”.
As to “MSEKFDCHYCRDPLQGKKYVQKDGRHCCLKCFDKFCANTCVDCRKPISADAKEVHYKNRYWHDNCFRCAKCLHPLASETFVSKDGKILCNKCATREDSPRCKGCFKAIVAGDQNVEYKGTVWHKDCFTCSNCKQVIGTGSFFPKGEDFYCVTCHETKFAKHCVKCNKAITSGGITYQDQPWHAECFVCVTCSKKLAGQRFTAVEDQYYCVDCYKNFVAKKCAGCKNPITGKRTVSRVSHPVSKARKSPVCHGKRLPLTLFPSANLRGRHPGGERTCPSWVVVLYRKNRSLAAPRGPGLVKAPVWWPMKDNPGTTTASTAKNAP”, the protein production result is “failed”.
With “MSEKLQKVLARAGHGSRREIESIIEAGRVSVDGKIAKLGDRVEVTPGLKIRIDGHLISVRESAEQICRVLAYYKPEGELCTRNDPEGRPTVFDRLPKLRGARWIAVGRLDVNTCGLLLFTTDGELANRLMHPSREVEREYAVRVFGQVDDAKLRDLSRGVQLEDGPAAFKTIKFSGGEGINQWYNVTLTEGRNREVRRLWEAVGVQVSRLIRVRYGDIPLPKGLPRGGWTELDLAQTNYLRELVELPPETSSKVAVEKDRRRMKANQIRRAVKRHSQVSGGRRSGGRNNNG”, the protein production entry was “not failed”.
In the case of “MSEKREKQTKSKRRIWRGVTTATASLLTLSMSATLVIDGFRTDIDKFLGTQSTKMVTEDVSAEDYTFQSDYSSTTELLDSIEDLGERMNEEGSVLLKNENAALPLSKEETQKISLLGFSSYYPVQGGDFGSTLSENKGTDADTVDMLEAFESKGFEMNPTLKKMYQGLKEEFKSEAVLPWGVTTYYRATAPATTGVFTSLEPETATLDEAEPNWKKSMTDYNVMIVTLARAAGENANYTPGEDGVNPEQDLNQADPLGLSDTERAIIDEAVNAKKENNGKLIVMLNNASAMEIEEIKNNTGVDAILEVGLPGGYGFYGVADVLSGEVNPSGHLADTYAVDNSSSPAAQNYGNYEWTNADSAYSINSEIVEAEGIYTGYKYYETRYADTVLGQGNASDKTGSSNGKAWNYEDEVSYPFGYGLSYTTFSQTLDSLDVNLEDKTVTAKVTVKNTGDVAGKDVVQLYTSLPYTEYDKEHAVEKAAVQLLDYEKTGVLQPGESVTVEITADAQDMASWDSTCDNAAGTKGNWILDAGDYYFTVGNGSHEAVNNVLAAQGMTKANGMTDAGNAANVKKWTLDTFDSETFAYSKNGTAVENQLQDMDLNYYMPDTVTYLSRSDWKATWPKTYKDLTATDEMIEVMKNNLVEIKEQGNPDEVTFGEDNGLTLASLKGETDLTNEKWTDLIDQITLEEAMIRTGFGGTSTKSIVSIVSPEAVQNDGPNGFNSYTLGQYANTDTDSADPYVIDPDDKNLNYKFGTMSNETVIAQTFSKEMAAEYGAVTGNYSIWSNLPILWGAGTNLHRTPYNARNHEYYSEDAILTAYQAAAYIAAGKEYGCIIAPKHFAFNDTEINRSGIATFMTEQKARENELRGTQASVEDAQTLGMMTTFNRIGCTAGNAHYGLLMNILRKEWGFQGLMSEDFIQDANYSVLKEAVHCGVTMTCNTGDSNMEAVTAKWNYWTTEAVSKDASMMQDLKNVMMWQNYALANSNAMDGLNETSQIKDVRTWYDNALTATSAVLALLTLAAAAMYIRDAKRRKNS”, the protein production result is “failed”.
For “MSELAASLLSRVILPRPGEPLDVRKLYLEESTTNARRAHAPTRTSLQIGAESEVSFATYFNAFPASYWRRWTTCKSVVLRVQVTGAGRVDVYRTKATGARIFVEGHDFTGTEDQPAAVETEVVLQPFEDGGWVWFDITTDTAVTLHSGGWYATSPAPGTANIAVGIPTFNRPADCVNALRELTADPLVDQVIGAVIVPDQGERKVRDHPDFPAAAARLGSRLSIHDQPNLGGSGGYSRVMYEALKNTDCQQILFMDDDIRLEPDSILRVLAMHRFAKAPMLVGGQMLNLQEPSHLHIMGEVVDRSIFMWTAAPHAEYDHDFAEYPLNDNNSRSKLLHRRIDVDYNGWWTCMIPRQVAEELGQPLPLFIKWDDADYGLRAAEHGYPTVTLPGAAIWHMAWSDKDDAIDWQAYFHLRNRLVVAAMHWDGPKAQVIGLVRSHLKATLKHLACLEYSTVAIQNKAIDDFLAGPEHIFSILESALPQVHRIRKSYPDAVVLPAASELPPPLHKNKAMKPPVNPLVIGYRLARGIMHNLTAANPQHHRRPEFNVPTQDARWFLLCTVDGATVTTADGCGVVYRQRDRAKMFALLWQSLRRQRQLLKRFEEMRRIYRDALPTLSSKQKWETALLPAANQEPEHG”, the protein production entry is listed as “failed”.
The value for “MSELILHHYPTSLFAEKARLMLGFKGVNWRSVTIPSIMPKPDLTALTGGYRKTPVLQIGADIYCDTALMARRLEQEKASPAFYPQGQEFAVAGLAAWADSVLFLHAVSLVFQPESMAVRFAKVPPDAAKAFIADRSMLFNGGTASRPPVEQVKHQWPTFMSRLESQLSHGGDFLFGAPSIADFSVAHTLWFLKQTPVTAPFVDDYPSVSVWLDRVLGFGHGSLSDLSSAAAIEIASNATPAPLPDETFIDPNGFKAGDKVAIAAVDYGVEAVEGELMFTGREELILRREDNRAGVVHVHFPRLGFRVEKR” was “not failed”; that for “MSELSTEAPAQSAKPTIYFDGVSSRRRQVTLTLGDALEIVEEGATPVRWAYADIRRADSPAGILRLASTFAPPLARLEIRDTALAADVSVRCMRLDEHQTTRRGIAKIVGWSVAAAVSIVCVVLFGVPLAADRLAPLVPKPIERRIGDASEVQVKTIFGGRTCEDPAGKAAFTKLVNRLRDAAGLDDDSMTAGVLPTSVPNAFALPGGKVFLLQGLLDRAESPDELAGILAHELGHLKHHDNMRGLIYNGGTSFLIGLLFGDVTGSSAVIFASRSVVEASYSREAETGADTFAIDIMHALGRSPRPSAELMFRITGKEGGSGFTILSSHPLTEDRLARMTKEDRPVSGPPLLTDAEWRALKGICGSGKI” was “failed”.
In the case of “MSELVRKLSGTAPNPAFPRGAVDTQMHMYLPGYPALPGGPGLPPGALPGPEDYRRLMQWLGIDRVIITQGNAHQRDNGNTLACVAEMGEAAHAVVIIDATTTEKDMEKLTAAGTVGARIMDLPGGAVNLSELDAVDERAHAADWMVAVQFDGNGLLDHLPRLQKIRSRWVFDHHGKFFKGIRTDGPEMAALLKLIDRGNLWFKFAGVYESSRKSWPYADVAAFSRVIAAHAPERIVWGTNWPHNSVRETAAYPDDARLAELTLGWLPDEAARHRALVENPEALFKLSPVKAT”, the protein production result is “failed”.
“MSENLAITIATIVVKLFAIIDPFSVLPFLLAIYEEANRDSQEKVSWNYMINKITIAILILLTLFSLIGRPLLDFLGLSAQALQIAGGVLLVYLGIDTMGGFQQLRFIRSLREAIVTPIATPLLVGPGTMTALISLSVDYNPLELVISSGIVTLLVYLSLLSGPYLVKILGQTGTVAAGRFTAIIIAAFGVQLILSGISQLNFK”: the protein production result is on record as “failed”.
Consider “MSEPLHALARQLEQAIRASEPFQQLKRAYEDVRRDETAYRMFANVRDIQLRLHEKQMRGAAILPDEIEQAQKAMALAQQNEKLARLMALEQQMSITIAEVQQIAMKPLEELHRSFMEGR”, for which the protein production result is reported as “not failed”.
Take “MSEPLLHLTERSLWDAARDRGTYEMATRGRTLQEEGFIHCSLRHQLPGVAALLYGSRAGSDELVVLVVDAERLAAPVRYEAVGPGGEEFPHVYGPIPVSAVVDVEVWTGGEAASALEHHHHHH”: the protein production result is recorded as “not failed”.
Consider “MSEPVIKSLLDTDMYKITMHAAVFTNFPDVTVTYKYTNRSSQLTFNKEAINWLKEQFSYLGNLRFTEEEIEYLKQEIPYLPSAYIKYISSSNYKLHPEEQISFTSEEIEGKPTHYKLKILVSGSWKDTILYEIPLLSLISEAYFKFVDIDWDYENQLEQAEKKAETLFDNGIRFSEFGTRRRRSLKAQDLIMQGIMKAVNGNPDRNKSLLLGTSNILFAKKYGVKPIGTVAHEWVMGVASISEDYLHANKNAMDCWINTFGAKNAGLALTDTFGTDDFLKSFRPPYSDAYVGVRQDSGDPVEYTKKISHHYHDVLKLPKFSKIICYSDSLNVEKAITYSHAAKENGMLATFGIGTNFTNDFRKKSEPQVKSEPLNIVIKLLEVNGNHAIKISDNLGKNMGDPATVKRVKEELGYTERSWSGDNEAHRWTZ”, for which the protein production result is “not failed”.
For “MSEQQHVRADGTVTFLPHRLNRHPVVVRGLTADELWICCGLSGAAGLLVGAPLSWVFRTIAIAPTFVVLGVALGVFIGGGILRRLKRGRPDTWLYRQLQWRIATGHPLMAGWVGGHVLISRSGFWSTRRSMR”, the protein production entry was “failed”.
The value for “MSERRDAILKASATAIAQRGIRGLRVNDVAEVAGVSPGLLYYHFKDRIGLLEAALNYINDRARAYRSEGEGSGDSARDRLTRSLLGEIQDRPEVVENSLAWNELRASAVYEEALRDPLARTTAAWVSEIADAIVQAQATGEISRSLDPQPTAVTMTALVEGLSGRWLCKEISTEDARSHLLGAIDVVMSEPTHHTADTPVTPTPKEYR” was “not failed”; that for “MSERVSEEPGLDKGDRAEECELDDPELKAIRMRVREMEEEAERLKGLSGQDKSIGVSTRPCMQTTHSKMTAGAYTEGPPQPLSAEEKKEIDKRSVYVGNVDYGSTAQDLEAHFSSCGSINRITILCDKFSGHPKGYAYIEFAERNSVDAAVAMDETVFRGRTIKVLPKRTNMPGISSTDRGGFRGRPRGNRGNYQRGQRPRGRPFRGRGRPGPLNNPY” was “not failed”.
Regarding “MSESNRQRATGLVQAYYEAFNRGDWDAMLAFLAEDVAHDLNQGPREIGRAAFASFLQRMNDSYREQLRDIVVTANDEGTRVGAEYVVHGVYHTTDEGLPDANGQTYVLPGGAFFDVRDGQITRVTNYYNLQEWIAQVSR”, the protein production entry is given as “not failed”.
Consider “MSESTAPSDTVLLRGGEVHSPADPFATAMVVERGQVAWVGSEGAADAFSAGVDEVVDLEGALVTPAFTDAHVHTTSTGLALTGLDLSGAPSLEAALALVRDFAAARPDDRVLLGHGWDTARWPGGRPPTRAELDEAADGRPLYLSRIDVHSAVVSTALLDLVPGITGRAGYLDGPLTRDAHHAVRGAALGAVSPAQRTEAQRAALAHAASLGIGSVHECAGPEISSEDDFTGLLRLAAEETGPRVVGYWAEWGEEGIDRARALGAVGAAGDLFVDGALGSHTACLHQPYSDAGHTGTAYLDDDAVAAHVIACTEAGLQAGFHAIGDAAVTSVVEGVRAAAEKVGLARVRAARHRVEHAEMLTPETIAAFAELGLTASVQPAFDALWGGADGMYAQRLGAERARTLNPFAALLRAGVPLAFGSDSPVTPLDPWGTVRAAAFHRTPEHRVSVRAAFTAHTRGGWRAIGRDDAGVLVPGAPADYAVWRTEELVVQAPDDRVARWSTDPRSGTPGLPDLTPGGDLPVCLRTVVGGRTVFVRPNE”, for which the protein production result is given as “failed”.
As to “MSETDTAWIETALTSARPQAVGALLRYFRDLDTAEEAFQNACLRALKTWPQNGPPRDPAAWLIMVGRNVAIDEVRRARKQQPLPEDDQAISDLDDAEGALAERLDGSHYRDDILRLMFICCHPQLPATQQIALALRIVSGLTVKQIARAFLVSEAAMEQRITRAKAKVAEAGTPFETPGPIERSERLAGVAAMIYLIFNEGYSASGDTAEIRKPLCEEAIRLARLLLRLFQSEPEIMGLAALLLLQHARSAARFADDGSLILLEDQDRSLWNGSMIAEGLALIDKAMRHRRSGPYQIQAAIAALHARAATPEETDWAQIDLLYGALELAQPSPVVTLNRAVAVSKVRGPQAALDLIEPLAPKLGNYFHFHGVRGAFLMQLGRNDEARIAFDRAIALANTSAEAAHIRMHIDRLIRDSQPKSSNGSARQGAKAK”, the protein production result is on record as “failed”.
